Common to all, as to type: in vivo
In data set [1] the test system is C57/BL6 mice. Briefly: Example 34: EPO mRNA in buffer IM or SC in mice, serum EPO (Table 60). Particulars: 13 hours post injection. The procedure:
Mice were intramuscularly or subcutaneously injected with 50 μl of the modified human EPO mRNA (h-EPO), modified luciferase mRNA (Luc) or the formulation buffer (F.Buffer) as described in the dosing chart Table 60. 13 hours post injection blood was collected and serum was analyzed to determine the amount human EPO for each mouse or rat.

For data set [2], the system named is Sprague-Dawley rats. The data set can be described thus: Example 35: duration after IM EPO mRNA in rats, serum EPO (Table 61). The procedure: The rats were bled 2, 6, 12, 24, 48 and 72 hours after the intramuscular injection to determine the concentration of human EPO in serum at a given time.
Data set [3] relates to mice. Briefly: Example 42B: EPO mRNA dose response IM in mice (Table 68). The protocol: The mice were bled at 13 hours after the injection to determine the concentration of the human polypeptide in serum in pg/mL.
The test system of data set [4] is non-human primates (cynomolgus monkey). Briefly: Example 22: NHP cytokine interferon-alpha (Table 47). The procedure:
LNP formulations, shown in Table 33 (above), were administered to non-human primates (NHP) (cynomolgus monkey) (n=2) as intravenous injection (IV). The NHP were administered a single modified mRNA IV dose of 0.5 mg/kg, 0.05 mg/kg or 0.005 mg/kg of G-CSF or EPO in a dose volume of 0.5 mL/kg. The NHPs were bled before dosing with the modified mRNA LNP formulations to determine protein expression in the serum and a baseline complete blood count. After administration with the G-CSF modified mRNA formulation the NHP were bled at 8, 24, 48 and 72 hours to determined protein expression. After administration with the EPO modified mRNA formulation the NHP were bled at 8, 24, 48, 72 hours and 7 days to determined protein expression.

Setting [5] is: rats IM 100 μg, 24, 48 and 72 hour.
Where [6] appears, read: Dose Vol. (μl/mouse) 100, 13 hours.
[7] abbreviates: 0.005 mg/kg, 4 days, Female NHP.
The mark [8] stands for this setting: 0.005 mg/kg, Day 1 + 8 hr, Female NHP.
[9] abbreviates: 0.005 mg/kg, Day 1 + 8 hr, Male NHP.
Setting [10] is: 0.005 mg/kg, Pre-dose, Female NHP.
Where [11] appears, read: 0.005 mg/kg, Pre-dose, Male NHP.
The mark [12] stands for this setting: 0.05 mg/kg, Day 1 + 8 hr, Female NHP.
Where [13] appears, read: 0.05 mg/kg, Day 1 + 8 hr, Male NHP.
Where [14] appears, read: 0.05 mg/kg, Pre-dose, Female NHP.
The mark [15] stands for this setting: 0.5 mg/kg, Day 1 + 8 hr, Female NHP.
Where [16] appears, read: 0.5 mg/kg, Day 1 + 8 hr, Male NHP.
Where [17] appears, read: 0.5 mg/kg, Pre-dose, Female NHP.

Consider “Luciferase: luciferase mRNA, SEQ ID NO: 14, Cap1, fully modified with 5-methylcytosine and pseudouridine”, for which, in data set [1] (mice IM, dose 100 μg), the “Average Level in serum (human EPO)” value stood at 0 pg/mL. In addition, the “Average Level in serum (human EPO)” value in data set [1] (mice SC, dose 100 μg) was determined as 26.7 pg/mL. Besides, in data set [2] (setting [5]), the “human EPO in serum, Avg.” value stood at 37.2 pg/mL and the “human EPO in serum, Geometric-mean” value worked out at 29.2 pg/mL. Further, the “Average Protein Product, serum” value in data set [3] (setting [6]) was 0.0 pg/mL.

B1: EPO: modified mRNA encoding human erythropoietin, SEQ ID NO: 7, Cap1, fully modified with 5-methylcytosine and pseudouridine; LNP NPA-060-1 in Examples 17-22 (nucleic acid)
chain: GGGAAAUAAGAGAGAAAAGAAGAGUAAGAAGAAAUAUAAGAGCCACCAUGGGAGUGCACGAGUGUCCCGCGUGGUUGUGGUUGCUGCUGUCGCUCUUGAGCCUCCCACUGGGACUGCCUGUGCUGGGGGCACCACCCAGAUUGAUCUGCGACUCACGGGUACUUGAGAGGUACCUUCUUGAAGCCAAAGAAGCCGAAAACAUCACAACCGGAUGCGCCGAGCACUGCUCCCUCAAUGAGAACAUUACUGUACCGGAUACAAAGGUCAAUUUCUAUGCAUGGAAGAGAAUGGAAGUAGGACAGCAGGCCGUCGAAGUGUGGCAGGGGCUCGCGCUUUUGUCGGAGGCGGUGUUGCGGGGUCAGGCCCUCCUCGUCAACUCAUCACAGCCGUGGGAGCCCCUCCAACUUCAUGUCGAUAAAGCGGUGUCGGGGCUCCGCAGCUUGACGACGUUGCUUCGGGCUCUGGGCGCACAAAAGGAGGCUAUUUCGCCGCCUGACGCGGCCUCCGCGGCACCCCUCCGAACGAUCACCGCGGACACGUUUAGGAAGCUUUUUAGAGUGUACAGCAAUUUCCUCCGCGGAAAGCUGAAAUUGUAUACUGGUGAAGCGUGUAGGACAGGGGAUCGCUGAUAAGCUGCCUUCUGCGGGGCUUGCCUUCUGGCCAUGCCCUUCUUCUCUCCCUUGCACCUGUACCUCUUGGUCUUUGAAUAAAGCCUGAGUAGGAAG
modifications: Cap1, 5-methylcytosine, pseudouridine
On to B1, for which the IFN-alpha was found to be 0 pg/mL in data set [4] (setting [7]); 0 pg/mL in data set [4] (0.005 mg/kg, 4 days, Male NHP); 0 pg/mL in data set [4] (setting [8]); 0 pg/mL in data set [4] (setting [9]); 0 pg/mL in data set [4] (setting [10]); 0 pg/mL in data set [4] (setting [11]). The IFN-alpha came out at 0 pg/mL in data set [4] (0.05 mg/kg, 4 days, Female NHP); 0 pg/mL in data set [4] (0.05 mg/kg, 4 days, Male NHP); 0 pg/mL in data set [4] (setting [12]); 0 pg/mL in data set [4] (setting [13]); 0 pg/mL in data set [4] (setting [14]); 0 pg/mL in data set [4] (0.05 mg/kg, Pre-dose, Male NHP). The IFN-alpha in data set [4] (0.5 mg/kg, 4 days, Female NHP) was determined as 0 pg/mL; in data set [4] (0.5 mg/kg, 4 days, Male NHP), 0 pg/mL; in data set [4] (setting [15]), 217.5 pg/mL; in data set [4] (setting [16]), 16.79 pg/mL; in data set [4] (setting [17]), 0 pg/mL; in data set [4] (0.5 mg/kg, Pre-dose, Male NHP), 0 pg/mL. Besides, the “Average Level in serum (human EPO)” value was found to be 2.6 pg/mL in data set [1] (mice IM, dose 1 μg); 25.9 pg/mL in data set [1] (mice IM, dose 10 μg); 18.7 pg/mL in data set [1] (mice IM, dose 25 μg); 63.5 pg/mL in data set [1] (mice IM, dose 50 μg); 96.2 pg/mL in data set [1] (mice IM, dose 100 μg); 72.0 pg/mL in data set [1] (mice SC, dose 100 μg). Besides, the “human EPO in serum, Avg.” value came out at 59.6 pg/mL in data set [2] (rats IM 100 μg, 2 hour); 68.6 pg/mL in data set [2] (rats IM 100 μg, 6 hour); 87.4 pg/mL in data set [2] (rats IM 100 μg, 12 hour); 108.6 pg/mL in data set [2] (rats IM 100 μg, 24 hour); 77.9 pg/mL in data set [2] (rats IM 100 μg, 48 hour); 80.1 pg/mL in data set [2] (rats IM 100 μg, 72 hour). The “human EPO in serum, Geometric-mean” value was determined as 58.2 pg/mL in data set [2] (rats IM 100 μg, 2 hour); 55.8 pg/mL in data set [2] (rats IM 100 μg, 6 hour); 84.5 pg/mL in data set [2] (rats IM 100 μg, 12 hour); 95.3 pg/mL in data set [2] (rats IM 100 μg, 24 hour); 77.0 pg/mL in data set [2] (rats IM 100 μg, 48 hour); 75.8 pg/mL in data set [2] (rats IM 100 μg, 72 hour). In addition, the “Average Protein Product, serum” value in data set [3] (Dose Vol. (μl/mouse) 1, 13 hours) stood at 2.6 pg/mL; in data set [3] (Dose Vol. (μl/mouse) 10, 13 hours) it was 25.9 pg/mL; in data set [3] (Dose Vol. (μl/mouse) 25, 13 hours), 18.7 pg/mL; in data set [3] (Dose Vol. (μl/mouse) 50, 13 hours), 63.5 pg/mL; in data set [3] (setting [6]) it was 96.2 pg/mL.

B2: G-CSF: modified mRNA encoding human G-CSF, SEQ ID NO: 4, Cap1, fully modified with 5-methylcytosine and pseudouridine; LNP-formulated in Examples 16-22 (nucleic acid)
chain: GGGAAAUAAGAGAGAAAAGAAGAGUAAGAAGAAAUAUAAGAGCCACCAUGGCCGGUCCCGCGACCCAAAGCCCCAUGAAACUUAUGGCCCUGCAGUUGCUGCUUUGGCACUCGGCCCUCUGGACAGUCCAAGAAGCGACUCCUCUCGGACCUGCCUCAUCGUUGCCGCAGUCAUUCCUUUUGAAGUGUCUGGAGCAGGUGCGAAAGAUUCAGGGCGAUGGAGCCGCACUCCAAGAGAAGCUCUGCGCGACAUACAAACUUUGCCAUCCCGAGGAGCUCGUACUGCUCGGGCACAGCUUGGGGAUUCCCUGGGCUCCUCUCUCGUCCUGUCCGUCGCAGGCUUUGCAGUUGGCAGGGUGCCUUUCCCAGCUCCACUCCGGUUUGUUCUUGUAUCAGGGACUGCUGCAAGCCCUUGAGGGAAUCUCGCCAGAAUUGGGCCCGACGCUGGACACGUUGCAGCUCGACGUGGCGGAUUUCGCAACAACCAUCUGGCAGCAGAUGGAGGAACUGGGGAUGGCACCCGCGCUGCAGCCCACGCAGGGGGCAAUGCCGGCCUUUGCGUCCGCGUUUCAGCGCAGGGCGGGUGGAGUCCUCGUAGCGAGCCACCUUCAAUCAUUUUUGGAAGUCUCGUACCGGGUGCUGAGACAUCUUGCGCAGCCGUGAAGCGCUGCCUUCUGCGGGGCUUGCCUUCUGGCCAUGCCCUUCUUCUCUCCCUUGCACCUGUACCUCUUGGUCUUUGAAUAAAGCCUGAGUAGGAAG
modifications: Cap1, 5-methylcytosine, pseudouridine
As for B2, the IFN-alpha in data set [4] (setting [7]) is 0 pg/mL; in data set [4] (0.005 mg/kg, 4 days, Male NHP), 0 pg/mL; in data set [4] (setting [8]), 0 pg/mL; in data set [4] (setting [9]), 0 pg/mL; in data set [4] (setting [10]) it was 0 pg/mL; in data set [4] (setting [11]), 0 pg/mL. In addition, the IFN-alpha in data set [4] (0.05 mg/kg, 4 days, Female NHP) turned out to be 0 pg/mL; in data set [4] (0.05 mg/kg, 4 days, Male NHP) it was 0 pg/mL; in data set [4] (setting [12]), 0 pg/mL; in data set [4] (setting [13]), 0 pg/mL; in data set [4] (setting [14]), 0 pg/mL; in data set [4] (0.05 mg/kg, Pre-dose, Male NHP) it was 0 pg/mL. Moreover, the IFN-alpha in data set [4] (0.5 mg/kg, 4 days, Female NHP) is on record as 0 pg/mL; in data set [4] (0.5 mg/kg, 4 days, Male NHP) it was 0 pg/mL; in data set [4] (setting [15]), 529.2 pg/mL; in data set [4] (setting [16]), 503.8 pg/mL; in data set [4] (setting [17]), 0 pg/mL; in data set [4] (0.5 mg/kg, Pre-dose, Male NHP), 0 pg/mL.
